# Substitutions are numbered along the chain they refer to. In names and notes the source's numbering stands.
# T1: human FcγRIIa R131 (human, UniProt P12318 34-317, limits assumed)
# T1 construct: FACS implies display on cells, but the methods name no FcγRIIa cell line; also called huFcγRIIa R131
# T1 sequence (looked up): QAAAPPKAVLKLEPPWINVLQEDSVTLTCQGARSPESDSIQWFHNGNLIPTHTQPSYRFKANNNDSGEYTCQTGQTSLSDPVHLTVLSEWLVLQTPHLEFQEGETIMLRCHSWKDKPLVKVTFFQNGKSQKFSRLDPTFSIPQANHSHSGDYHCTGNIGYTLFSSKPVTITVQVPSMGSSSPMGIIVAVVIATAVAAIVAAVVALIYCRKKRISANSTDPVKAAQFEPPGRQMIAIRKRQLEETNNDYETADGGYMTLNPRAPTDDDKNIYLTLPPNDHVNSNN
# T2: human FcγRIIa H131 (human, UniProt P12318 34-317, limits assumed)
# T2 construct: FACS implies display on cells, but the methods name no FcγRIIa cell line; also called huFcγRIIa H131
# T2 sequence (looked up): T1 sequence (looked up) with R134H
# B1: mAb1-ADLE (antibody)
# chain 1: QVQLVQSGAEVKKPGASVKVSCKASGYSFTSYGISWVRQAPGQGLEWMGWISTYKGYTQYAQNFQGRVTITTDTPATTVYMELRSLRSDDTAVYYCARVLSETGYFYYYYYGMDVWGQGTLVTVSSASTKGPSVFPLAPSSKSTSGGTAALGCLVKDYFPEPVTVSWNSGALTSGVHTFPAVLQSSGLYSLSSVVTVPSSSLGTQTYICNVNHKPSNTKVDKKVEPKSCDKTHTCPPCPAPELLAGPDVFLFPPKPKDTLMISRTPEVTCVVVDVSHEDPEVKFNWYVDGVEVHNAKTKPREEQYNSTYRVVSVLTVLHQDWLNGKEYKCKVSNKALPLPEEKTISKAKGQPREPQVYTLPPSRDELTKNQVSLTCLVKGFYPSDIAVEWESNGQPENNYKTTPPVLDSDGSFFLYSKLTVDKSRWQQGNVFSCSVMHEALHNHYTQKSLSLSPG
# chain 2: QAVVTQPPSVSGAPGQRVTISCTGSSSNIGADYNVHWYQLLPGTAPKLLIYGNTNRPSGVPDRFSGSKSGTSASLAITGLQAEDEADYYCQSYDSSLSASVFGGGTKLTVLGQPKAAPSVTLFPPSSEELQANKATLVCLISDFYPGAVTVAWKADSSPVKAGVETTTPSKQSNNKYAASSYLSLTPEQWKSHRSYSCQVTHEGSTVEKTVAPTECS
# B2: mAb1 (wt) (IgG1) (antibody)
# chain 1: not shown
# chain 2: B1 chain 2
# B3: mAb1-DE (antibody)
# chain 1: not shown
# chain 2: B1 chain 2
# B4: mAb1-ADLE-L242C-K334C (antibody)
# chain 1: B1 chain 1 with L251C, K343C
# chain 2: B1 chain 2
# B5: mAb1-ADE-DQ-R292C-V302C (antibody)
# chain 1: B1 chain 1 with T265D, R301C, V311C, T316Q, L339A
# chain 2: B1 chain 2
# B6: mAb1-ADE-DQ-L242C-K334C (antibody)
# chain 1: B1 chain 1 with L251C, T265D, T316Q, L339A, K343C
# chain 2: B1 chain 2
# B7: mAb1-ADE-DQ (antibody)
# chain 1: B1 chain 1 with T265D, T316Q, L339A
# chain 2: B1 chain 2
# B8: mAb1-ADE-R292C-V302C (antibody)
# chain 1: B1 chain 1 with R301C, V311C, L339A
# chain 2: B1 chain 2
# B9: mAb1-ADE-L242C-K334C (antibody)
# chain 1: B1 chain 1 with L251C, L339A, K343C
# chain 2: B1 chain 2
# B10: mAb1-ADE (antibody)
# chain 1: B1 chain 1 with L339A
# chain 2: B1 chain 2
# B11: mAb1-ADLE-R292C-V302C (antibody)
# chain 1: B1 chain 1 with R301C, V311C
# chain 2: B1 chain 2
# Biological target: T3, FcγRIIIa F158 on HEK293T cells (human, UniProt P08637 17-254)
# T3 construct: whole, on cells; also called HEK293T-FcγRIIIa F158
# Assay: FACS on HEK293T-FcγRIIIa cells, assay 2 n=1
# T3 sequence (P08637 17-254): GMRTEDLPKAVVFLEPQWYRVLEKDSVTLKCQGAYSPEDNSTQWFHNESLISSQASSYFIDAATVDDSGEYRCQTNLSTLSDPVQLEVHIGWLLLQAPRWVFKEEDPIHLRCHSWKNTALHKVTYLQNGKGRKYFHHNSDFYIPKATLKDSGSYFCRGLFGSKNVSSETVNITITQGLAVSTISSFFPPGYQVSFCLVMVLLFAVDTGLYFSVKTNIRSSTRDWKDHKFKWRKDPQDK
row,Binder,EC50 [nM]
1,B1,7
2,B2,744
3,B3,18

# Biological target: T4, FcγRIIIa V158 on HEK293T cells (human, UniProt P08637 17-254)
# T4 construct: whole, on cells
# Assay: FACS on HEK293T-FcγRIIIa cells, assay 2 n=1
# T4 sequence (P08637 17-254 F176V): as the sequence (P08637 17-254) above, with F160V counted along it
row,Binder,EC50 [nM]
1,B1,5
2,B2,244
3,B3,4

# Biological target: T5, huFcγRIIIa_F158 His protein (human, UniProt P08637 17-208)
# Assay: SPR, His-receptor captured, assay 2 n=3
# T5 sequence (P08637 17-208 limits assumed): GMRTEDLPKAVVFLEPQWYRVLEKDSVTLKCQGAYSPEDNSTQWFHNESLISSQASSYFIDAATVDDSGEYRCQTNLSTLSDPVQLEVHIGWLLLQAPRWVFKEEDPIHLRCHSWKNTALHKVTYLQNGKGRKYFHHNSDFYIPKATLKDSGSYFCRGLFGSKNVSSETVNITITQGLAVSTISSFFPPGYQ
row,Binder,Kd [nM]
1,B1,46
2,B2,1330
3,B3,48

# Biological target: T6, huFcγRIIIa_V158 His protein (human, UniProt P08637 17-208)
# T6 construct: also called His-tagged recombinant human FcγRIIIa-V158
# Assay: SPR, His-receptor captured, assay 2 n=3
# T6 sequence (P08637 17-208 F176V limits assumed): as the sequence (P08637 17-208 limits assumed) above, with F160V counted along it
row,Binder,Kd [nM]
1,B1,22
2,B2,386
3,B3,17

# Biological target: T5, huFcγRIIIa_F158 His protein
# Assay: SPR, His-receptor captured, assay 1 n=3
row,Binder,Kd [nM]
1,B4,148
2,B1,94
3,B2,3870
4,B3,141
5,B5,202
6,B6,211
7,B7,183
8,B8,211
9,B9,193
10,B10,150
11,B11,296

# Biological target: T6, huFcγRIIIa_V158 His protein
# Assay: SPR, His-receptor captured, assay 1 n=3
row,Binder,Kd [nM]
1,B4,161
2,B1,77
3,B2,1620
4,B3,57
5,B5,214
6,B6,191
7,B7,155
8,B8,172
9,B9,162
10,B10,107
11,B11,258

# Biological target: T7, human FcRn (human, UniProt P55899 24-297)
# T7 construct: also called huFcRn; recombinant human FcRn
# Assay: SPR pH 6.0, huFcRn captured, assay 1 n=3
# T7 sequence (P55899 24-297): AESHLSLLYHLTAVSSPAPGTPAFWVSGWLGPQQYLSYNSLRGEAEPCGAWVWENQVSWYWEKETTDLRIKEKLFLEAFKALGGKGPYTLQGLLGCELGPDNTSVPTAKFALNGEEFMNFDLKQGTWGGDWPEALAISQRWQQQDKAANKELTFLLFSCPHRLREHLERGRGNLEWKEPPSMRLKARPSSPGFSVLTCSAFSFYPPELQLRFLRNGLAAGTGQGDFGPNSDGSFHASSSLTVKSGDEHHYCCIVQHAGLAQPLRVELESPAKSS
row,Binder,Kd [nM]
1,B4,956
2,B1,993
3,B2,1210
4,B3,996
5,B5,198
6,B6,161
7,B7,217
8,B8,1310
9,B9,829
10,B10,1040
11,B11,1130

# Biological target: T3, FcγRIIIa F158 on HEK293T cells
# Assay: FACS on HEK293T-FcγRIIIa cells, assay 1 n=3; cell shifted up, taken as F158
row,Binder,EC50 [nM]
1,B2,1060

# Biological target: T7, human FcRn
# Assay: SPR pH 6.0, huFcRn captured, assay 2 n=3
row,Binder,Kd [nM]
1,B1,811
2,B2,941
3,B3,761

# Biological target: T3, FcγRIIIa F158 on HEK293T cells
# Assay: FACS on HEK293T-FcγRIIIa cells, assay 1 n=3; bracketed value under the F158 cell
row,Binder,EC50 [nM]
1,B1,4.37

# Biological target: T3, FcγRIIIa F158 on HEK293T cells
# Assay: FACS on HEK293T-FcγRIIIa cells, assay 1 n=3
row,Binder,EC50 [nM]
1,B4,11
2,B1,4
3,B2,1060
4,B3,11
5,B5,17
6,B6,19
7,B7,13
8,B8,19
9,B9,18
10,B10,9
11,B11,25

# Biological target: T4, FcγRIIIa V158 on HEK293T cells
# Assay: FACS on HEK293T-FcγRIIIa cells, assay 1 n=3
row,Binder,EC50 [nM]
1,B4,5
2,B1,3
3,B2,186
4,B3,2
5,B5,10
6,B6,7
7,B7,4
8,B8,12
9,B9,5
10,B10,3
11,B11,12

# Biological target: T1, human FcγRIIa R131
# Assay: FACS, assay 1 n=3
row,Binder,EC50 [nM]
1,B4,428
2,B1,85
3,B2,303
4,B3,198
5,B5,45
6,B6,152
7,B7,18
8,B8,43
9,B9,142
10,B10,20
11,B11,144

# Biological target: T2, human FcγRIIa H131
# Assay: FACS, assay 1 n=3
row,Binder,EC50 [nM]
1,B4,145
2,B1,70
3,B2,341
4,B3,106
5,B5,101
6,B6,68
7,B7,14
8,B8,92
9,B9,102
10,B10,20
11,B11,155

# Biological target: T4, FcγRIIIa V158 on HEK293T cells
# Assay: FACS on HEK293T-FcγRIIIa cells, assay 1 n=3; bracketed value under the V158 cell
row,Binder,EC50 [nM]
1,B1,2.71

# From US20230077531A1 (Sanofi, published 2023)
